Test results reported in patent publication US20250382383A1.

Target: soluble recombinant TGF-β1 (UniProt P01137)
Assay: cell-based or functional assay

Chain of soluble recombinant TGF-β1 (P01137 279-390 limits assumed): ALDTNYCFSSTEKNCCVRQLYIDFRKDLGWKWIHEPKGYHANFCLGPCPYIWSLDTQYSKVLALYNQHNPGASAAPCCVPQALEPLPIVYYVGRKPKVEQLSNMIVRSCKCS
Chain of TGF-beta dominant negative receptor (TGFβ DNR) (P37173 23-194 limits assumed): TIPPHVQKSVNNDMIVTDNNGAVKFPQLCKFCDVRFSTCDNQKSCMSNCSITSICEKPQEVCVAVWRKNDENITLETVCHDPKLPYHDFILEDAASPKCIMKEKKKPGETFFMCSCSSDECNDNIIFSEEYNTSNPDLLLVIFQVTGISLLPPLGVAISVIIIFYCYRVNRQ

- pSMAD2 (MFI/µg protein), TGFβ +; CAR-DNR T cells; Donor 1 (MFI/µg protein): 2210
- pSMAD2 (MFI/µg protein), TGFβ +; Tri-2A T cells; Donor 1 (MFI/µg protein): 1970
- pSMAD2 (MFI/µg protein), TGFβ +; Tri-2A T cells; Donor 2 (MFI/µg protein): 2080
- pSMAD2 (MFI/µg protein), TGFβ +; Tri-2A T cells; Donor 3 (MFI/µg protein): 1730
- pSMAD2 (MFI/µg protein), TGFβ +; Tri-IRES T cells; Donor 1 (MFI/µg protein): 3240
- pSMAD2 (MFI/µg protein), TGFβ +; Tri-IRES T cells; Donor 2 (MFI/µg protein): 3400
- pSMAD2 (MFI/µg protein), TGFβ +; Tri-IRES T cells; Donor 3 (MFI/µg protein): 2270
- pSMAD2 (MFI/µg protein), TGFβ +; Tri-mSCV T cells; Donor 1 (MFI/µg protein): 2480
- pSMAD2 (MFI/µg protein), TGFβ +; Tri-mSCV T cells; Donor 2 (MFI/µg protein): 1720
- pSMAD2 (MFI/µg protein), TGFβ +; Tri-mSCV T cells; Donor 3 (MFI/µg protein): 1200
- pSMAD2/3 (MFI CAR+), TGFb +; CAR-DNR T cells; Donor 1: 86.9 MFI
- pSMAD2/3 (MFI CAR+), TGFb +; CAR-DNR T cells; Donor 2: 105 MFI
- pSMAD2/3 (MFI CAR+), TGFb +; CAR-DNR T cells; Donor 3: 106 MFI
- pSMAD2/3 (MFI CAR+), TGFb +; Tri-2A T cells; Donor 1: 106 MFI
- pSMAD2/3 (MFI CAR+), TGFb +; Tri-2A T cells; Donor 2: 208 MFI
- pSMAD2/3 (MFI CAR+), TGFb +; Tri-2A T cells; Donor 3: 189 MFI
- pSMAD2/3 (MFI CAR+), TGFb +; Tri-IRES T cells; Donor 1: 70.6 MFI
- pSMAD2/3 (MFI CAR+), TGFb +; Tri-IRES T cells; Donor 2: 89.7 MFI
- pSMAD2/3 (MFI CAR+), TGFb +; Tri-IRES T cells; Donor 3: 89.4 MFI
- pSMAD3 (MFI/µg protein), TGFβ +; CAR-DNR T cells; Donor 1 (MFI/µg protein): 621
- pSMAD3 (MFI/µg protein), TGFβ +; Tri-2A T cells; Donor 1 (MFI/µg protein): 561
- pSMAD3 (MFI/µg protein), TGFβ +; Tri-2A T cells; Donor 2 (MFI/µg protein): 488
- pSMAD3 (MFI/µg protein), TGFβ +; Tri-2A T cells; Donor 3 (MFI/µg protein): 405
- pSMAD3 (MFI/µg protein), TGFβ +; Tri-IRES T cells; Donor 1 (MFI/µg protein): 942
- pSMAD3 (MFI/µg protein), TGFβ +; Tri-IRES T cells; Donor 2 (MFI/µg protein): 788
- pSMAD3 (MFI/µg protein), TGFβ +; Tri-IRES T cells; Donor 3 (MFI/µg protein): 643
- pSMAD3 (MFI/µg protein), TGFβ +; Tri-mSCV T cells; Donor 1 (MFI/µg protein): 660
- pSMAD3 (MFI/µg protein), TGFβ +; Tri-mSCV T cells; Donor 2 (MFI/µg protein): 460
- pSMAD3 (MFI/µg protein), TGFβ +; Tri-mSCV T cells; Donor 3 (MFI/µg protein): 377
Substance: TGF-beta dominant negative receptor (TGFβ DNR) (from UniProt P37173 23-194)
